Columns and labels:
[1] = test system: three different xenografts; assay: VEGF secretion in xenografts in vivo
Description: Inhibition of VEGF correlates with inhibition of ErbB3 phosphorylation (FIG. 24C). […] Inhibition of VEGF secretion is also known in the art to correlate with inhibition of tumor induced angiogenesis, a facilitator of tumor growth.

OVCAR8 spheroids = assay: spheroid growth assay; assay type: cell-based, human; conditions: OVCAR8, 25 μg/ml on days 1 and 4
Experimental: Subconfluent cells are trypsinized, counted, and resuspended in filtered medium. The cell concentration is adjusted to 100,000 cells/ml, and one 20 ul drop (containing 2000 cells) is added to each ring on the underside of the lid of a 96-well plate. The lids with these hanging droplets are then placed back on the original 96-well plate, which contained 100 ul of PBS in each well to maintain moisture. Four days after initial plating, the hanging droplets containing the spheroids are replated into new 96-well plates. This replating involves transferring the lid containing the hanging droplets to a fresh 1% agarose/RPMI-coated 96-well plate that contains 150 ul of medium per well. The plate and lid are then centrifuged together at 500 rpm for 1 minute to transfer the spheroid-containing drops from the lids to the wells. Plates are then further incubated at 37° C. in a humidified CO2 incubator. Spheroids are photographed in an inverted phase contrast microscope. A micrometer scale is also photographed at the same magnification to determine spheroid size. The diameter of the spheroids is determined using METAMORPH image analysis software (MDS Analytical Technologies).
Multicellular tumor spheroids are generated as before.

[2] = test system: Colo357 (pancreatic) xenograft; assay: xenograft tumor growth in nude mice; assay type: in vivo, mouse
[3] = target: T1, epiregulin binding to AdrR cells (Homo sapiens, UniProt P21860); assay: biotinylated epiregulin binding to AdrR cells by FACS; assay type: cell-based; conditions: 12.5 μM antibodies, 1 μM Epi
T1 construct: host or cells: AdrR (NCI/AdrR) ovarian cancer cells
Experimental: After 30 minutes, 50 μl of 2 μM biotinylated Epi is added to the cells and incubated for another 30 minutes on ice. This yields a final concentration of 12.5 μM antibodies and 1 μM Epi. Cells are then washed twice with 500 μl BD stain buffer and incubated with 100 μl of a 1:200 dilution of streptavidin-PE (PE=phycoerythrin, a fluorescent protein) (Invitrogen) in BD stain buffer for 45 minutes. Finally, cells are washed twice, resuspended in 300 μl of BD stain buffer and analyzed in a FACSCALIBUR flow cytometer. As a positive control, 1×10^5 AdrR cells are incubated with 1 μM Epi for 30 minutes on ice, washed twice and incubated with a 1:200 dilution of streptavidin-PE for 45 minutes. To assess background staining from the streptavidin-PE conjugate, cells are incubated with 100 μl of a 1:200 dilution of streptavidin-PE only for 45 minutes.

[4] = target: T2, AdrR cells expressing ErbB3 receptor (Homo sapiens, UniProt P21860); assay: HRG and BTC binding to AdrR cells by FACS; assay type: cell-based
T2 construct: host or cells: AdrR (NCI/AdrR) ovarian cancer cells

[5] = test system: ErbB3 phosphorylation in OVCAR 5; assay: ErbB3 phosphorylation ELISA in ovarian tumor cell line; assay type: cell-based, human; conditions: IgG2 isotype
Experimental: (§1) All ELISA reagents for the total and phospho-ErbB3 ELISAs are purchased from R&D Systems as DUOSET kits. 96-well NUNC MAXISORB plates are coated with 50 uL of an antibody and incubated overnight at room temperature. Next morning, plates are washed 3 times with […] in the BIOTEK plate washer with Dulbecco's phosphate buffered saline without calcium or magnesium (PBS) with added Tween detergent (PBST) (0.05% Tween-20). […] The plates are washed 3 times with […] in the BIOTEK plate washer with PBST (0.05% Tween-20). 50 μL of cell lysates and standards diluted in 50% Lysis buffer and 1% BSA are used in duplicates for further processing. Samples are incubated for 2 hrs at 4° C. on a plate shaker and washed as before. About 50 μl of a detection antibody diluted in 2% BSA, PBST is added and incubated for about 1 hr at room temperature. For phosphor-ErbB3, the detection antibody is directly conjugated to horseradish peroxidase (HRP) and incubated for 2 hrs at room temperature. The plate is washed as before. About 50 μl of Streptavidin-HRP is added and incubate for 30 min at room temperature (except for pErbB3). The plates are washed as before. About 50 μL of SUPERSIGNAL ELISA Pico (Thermo Scientific) substrate is added and the plate is read using a FUSION plate reader. The data are analyzed using EXCEL. […]

[6] = test system: ErbB3 phosphorylation in OVCAR 8; assay: as above; assay type: cell-based, human; conditions: IgG2 isotype
Experimental: as §1

ErbB3 = ErbB3 (Homo sapiens, UniProt P21860); assay: Surface Plasmon Resonance Assay; assay type: binding
[7] = target: T3, ErbB2/3 complex in AdrR cells (Homo sapiens, UniProt P21860); assay: ErbB2-ErbB3 protein complex formation (immunoprecipitation, blot); assay type: cell-based; conditions: 250 nM Ab #6, 10 nM HRG
T3 construct: host or cells: AdrR ovarian cancer cells
Experimental: The cells are lysed in 25 mM Tris, pH+7.5, 150 mM NaCl, 1 mM EDTA, 1.0% Triton X-100, 1.0% CHAPS, 10% v/v glycerol, containing 0.2 mM PMSF, 50 mTU/mL aprotinin, and 100 uM leupeptin, and the crude lysate are centrifuged briefly to remove insoluble material. Supernatant is transferred to a new EPPENDORF tube, and anti-ErbB3 antibody (Santa Cruz sc-285) is added at 1:500 dilution. Supernatants are incubated overnight with gentle shaking at 4 C. 60 ul of Immobilized Protein A/G agarose beads (Pierce, Rockford, Ill., #20421) is first washed with 1× PBS. The cell lysate-antibody mixture is added to the PBS washed beads, and incubated for 2 hours with gentle shaking at 4° C. The immunoprecipitates are then washed with ice-cold lysis buffer 3 times, resuspended in 30 ul of 2× SDS sample buffer, heat denatured at 95° C. for 7 minutes and run on 4-12% Bis-Tris Gels. SDS-PAGE and electro-transferred to PVDF membrane in Tri-Glycine buffer with 10% MeOH. […] The signal is detected using goat anti-rabbit IRDye800® infrared fluorescent dye-conjugated secondary antibody at 1:5000 (2 ul) in 10 ml of blocking buffer (Li-Cor Biosciences, #927-40000).

B1: Ab #6: human anti-ErbB3 antibody from Fab-phage library, CDRs SEQ ID NOs:7-12; used as IgG1 and IgG2 isotypes; in phase I trials as MM-121 (antibody, V domains shown)
VH: EVQLLESGGGLVQPGGSLRLSCAASGFTFSHYVMAWVRQAPGKGLEWVSSISSSGGWTLYADSVKGRFTISRDNSKNTLYLQMNSLRAEDTAVYYCTRGLKMATIFDYWGQGTLVTVSS
VL: QSALTQPASVSGSPGQSITISCTGTSSDVGSYNVVSWYQQHPGKAPKLIIYEVSQRPSGVSNRFSGSKSGNTASLTISGLQTEDEADYYCCSYAGSSIFVIFGGGTKVTVL
Q: Which “inhibition of VEGF secretion in vivo” value [1] does the source give for B1 here?
A: inhibiting VEGF secretion in three different xenografts, the highest being in COLO-357 xenograft

Q: What about the “decrease in spheroid area” value (OVCAR8 spheroids) of the same molecule?
A: 30-40%

Q: What about the “inhibition of tumor growth” value ([2]; 300 ug every three days (Q3d), p<0.05) of the same molecule?
A: significant inhibition of tumor growth

Q: What about the “inhibition of tumor growth” value ([2]; 600 ug Q3d versus 300 ug) of the same molecule?
A: further elevated

Q: And the “inhibition of tumor growth” value ([2]; 1500 ug Q3d versus 600 ug)?
A: did not result in increased efficacy

Q: What about the “inhibition of epiregulin binding to AdrR cells” value [3] of the same molecule?
A: inhibited

Q: What about the “competition with BTC for binding to AdrR cells” value [4] of the same molecule?
A: competes with HRG but not BTC

Q: What about the “competition with HRG for binding to AdrR cells” value [4] of the same molecule?
A: competes with HRG

Q: What about the “inhibition of ErbB3 phosphorylation” value [5] of the same molecule?
A: inhibited ErbB3 phosphorylation

Q: And the “inhibition of ErbB3 phosphorylation” value [6]?
A: inhibited ErbB3 phosphorylation

Q: What about the “competition with HRG for binding to ErbB3” value (ErbB3) of the same molecule?
A: competes with HRG for binding to ErbB3

Q: What about the “inhibition of HRG stimulated ErbB2/3 complex formation” value [7] of the same molecule?
A: completely inhibit HRG stimulated ErbB2/3 complex formation

— patent publication US8691225B2, “Antibodies against the ectodomain of ErbB3 and uses thereof” (Merrimack Pharmaceuticals, Inc., priority 2007, dated 2014)
